Data taken from patent US20030133907A1.

Target: T1, IFNG receptors on HeLa cells (UniProt P15260)
T1 sequence (looked up): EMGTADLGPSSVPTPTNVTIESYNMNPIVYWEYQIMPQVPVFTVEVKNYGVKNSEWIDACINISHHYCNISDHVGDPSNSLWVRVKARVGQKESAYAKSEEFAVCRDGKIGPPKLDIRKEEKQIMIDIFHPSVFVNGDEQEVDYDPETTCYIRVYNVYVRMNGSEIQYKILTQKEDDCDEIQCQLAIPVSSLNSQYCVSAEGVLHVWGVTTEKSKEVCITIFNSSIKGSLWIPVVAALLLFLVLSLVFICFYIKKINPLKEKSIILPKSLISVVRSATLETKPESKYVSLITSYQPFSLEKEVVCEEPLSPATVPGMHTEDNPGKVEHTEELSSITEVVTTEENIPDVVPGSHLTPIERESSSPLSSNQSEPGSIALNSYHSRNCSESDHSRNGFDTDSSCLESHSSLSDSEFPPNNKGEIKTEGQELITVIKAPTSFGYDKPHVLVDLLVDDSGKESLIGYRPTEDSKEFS
Assay: cell-based or functional assay

| % activity of full-length wt (AU/ml basis), Primary Assay | % activity of full-length wt (specific activity), Primary Assay | Activity (AU/ml), Primary Assay (ISRE-luciferase in HeLa cells), after transient transfection | Specific activity (AU/mg), Primary Assay (ISRE-luciferase in HeLa cells), after purification | specific activity relative to the corresponding non-PEGylated IFNG variant, Primary Assay | Activity relative to non-PEGylated product subjected to “PEGylation procedure” (%), Primary Assay | Substance |
| --- | --- | --- | --- | --- | --- | --- |
| 71% |  | 9.9e+06 AU/ml |  |  |  | E38N + S40T (full-length) (from UniProt P01579 24-161) (ligand) |
| 18% | 18% | 2.5e+06 AU/ml | 3.8e+06 AU/mg |  |  | N10C + S99T (full-length) (from UniProt P01579 24-161) (ligand) |
|  |  |  |  |  | 59% | N16C + S99T (full-length + 5 kDa mPEG) (from UniProt P01579 24-161) (ligand) |
| 79% |  | 1.1e+07 AU/ml |  |  |  | E38N + S40T + N59C + S99T (full-length) (from UniProt P01579 24-161) (ligand) |
| 10% |  | 1.4e+06 AU/ml |  |  |  | E38N + K61T + S99T (full-length) (from UniProt P01579 24-161) (ligand) |
| 26% |  | 3.7e+06 AU/ml |  |  |  | N16C + E38N + S40T + S99T (full-length) (from UniProt P01579 24-161) (ligand) |
| 93% | 67% | 1.3e+07 AU/ml | 1.4e+07 AU/mg |  |  | E38N + S40T + S99T (full-length) (from UniProt P01579 24-161) (ligand) |
| 5% |  | 720000 AU/ml |  |  |  | E38N + S40T + N83C + S99T (full-length) (from UniProt P01579 24-161) (ligand) |
|  |  |  |  |  | 41% | E38C + S99T (full-length + 10 kDa mPEG) (from UniProt P01579 24-161) (ligand) |
| 16% |  | 2.3e+06 AU/ml |  |  |  | E38N + S40T + S99T + N104C (full-length) (from UniProt P01579 24-161) (ligand) |
|  |  | 1.4e+07 AU/ml | 2.1e+07 AU/mg |  |  | Wild-type (full-length) rhuIFNG (from UniProt P01579 24-161) (ligand) |
| 79% | 11% | 1.1e+07 AU/ml | 2.3e+06 AU/mg |  |  | N16C + S99T (full-length) (from UniProt P01579 24-161) (ligand) |
| 7% |  | 940000 AU/ml |  |  |  | E38N + S40T + K94C + S99T (full-length) (from UniProt P01579 24-161) (ligand) |
| 86% |  | 1.2e+07 AU/ml |  |  |  | E38N + K61T (full-length) (from UniProt P01579 24-161) (ligand) |

The next lines start with the substance.

| Substance | % activity of full-length wt (AU/ml basis), Primary Assay | % activity of full-length wt (specific activity), Primary Assay | Activity (AU/ml), Primary Assay (ISRE-luciferase in HeLa cells), after transient transfection | Specific activity (AU/mg), Primary Assay (ISRE-luciferase in HeLa cells), after purification | specific activity relative to the corresponding non-PEGylated IFNG variant, Primary Assay | Activity relative to non-PEGylated product subjected to “PEGylation procedure” (%), Primary Assay |
| --- | --- | --- | --- | --- | --- | --- |
| S99T + N104C (full-length) (from UniProt P01579 24-161) (ligand) | 36% | 17% | 5e+06 AU/ml | 3.5e+06 AU/mg |  |  |
| N59C + S99T (full-length + 5 kDa mPEG) (from UniProt P01579 24-161) (ligand) |  | 11% |  | 2.4e+06 AU/mg | 15% |  |
| Wild-type (truncated after Leu135) (from UniProt P01579 24-158) (ligand) | 45% |  | 6.3e+06 AU/ml |  |  |  |
| S99T (full-length) (from UniProt P01579 24-161) (ligand) | 36% | 105% | 5.1e+06 AU/ml | 2.2e+07 AU/mg |  |  |
| S99T + N104C (full-length + 5 kDa mPEG) (from UniProt P01579 24-161) (ligand) |  |  |  |  |  | 42% |
| N10C + S99T (full-length + 5 kDa mPEG) (from UniProt P01579 24-161) (ligand) |  |  |  |  |  | 23% |
| N10C + E38N + S40T + S99T (full-length) (from UniProt P01579 24-161) (ligand) | 11% |  | 1.5e+06 AU/ml |  |  |  |
| E38N + S40T + S99T (truncated after Leu135) (from UniProt P01579 24-158) (ligand) | 29% |  | 4e+06 AU/ml |  |  |  |
| E38N (full-length) (from UniProt P01579 24-161) (ligand) | 100% |  | 1.4e+07 AU/ml |  |  |  |
| E38C + S99T (full-length) (from UniProt P01579 24-161) (ligand) | 71% | 16% | 1e+07 AU/ml | 3.4e+06 AU/mg |  |  |
| S99T (truncated after Leu135) (from UniProt P01579 24-158) (ligand) | 25% |  | 3.5e+06 AU/ml |  |  |  |
| N59C + S99T (full-length) (from UniProt P01579 24-161) (ligand) |  | 30% |  | 6.3e+06 AU/mg |  |  |
| N16C + S99T (full-length + 10 kDa mPEG) (from UniProt P01579 24-161) (ligand) |  | 6% |  | 1.3e+06 AU/mg | 15% |  |
